Literature values, collected in publication PMC4048747.

Biological target: IGF-1R (UniProt P08069)
UniProt P08069, sequence (P08069 31-736, chain 1 of 2): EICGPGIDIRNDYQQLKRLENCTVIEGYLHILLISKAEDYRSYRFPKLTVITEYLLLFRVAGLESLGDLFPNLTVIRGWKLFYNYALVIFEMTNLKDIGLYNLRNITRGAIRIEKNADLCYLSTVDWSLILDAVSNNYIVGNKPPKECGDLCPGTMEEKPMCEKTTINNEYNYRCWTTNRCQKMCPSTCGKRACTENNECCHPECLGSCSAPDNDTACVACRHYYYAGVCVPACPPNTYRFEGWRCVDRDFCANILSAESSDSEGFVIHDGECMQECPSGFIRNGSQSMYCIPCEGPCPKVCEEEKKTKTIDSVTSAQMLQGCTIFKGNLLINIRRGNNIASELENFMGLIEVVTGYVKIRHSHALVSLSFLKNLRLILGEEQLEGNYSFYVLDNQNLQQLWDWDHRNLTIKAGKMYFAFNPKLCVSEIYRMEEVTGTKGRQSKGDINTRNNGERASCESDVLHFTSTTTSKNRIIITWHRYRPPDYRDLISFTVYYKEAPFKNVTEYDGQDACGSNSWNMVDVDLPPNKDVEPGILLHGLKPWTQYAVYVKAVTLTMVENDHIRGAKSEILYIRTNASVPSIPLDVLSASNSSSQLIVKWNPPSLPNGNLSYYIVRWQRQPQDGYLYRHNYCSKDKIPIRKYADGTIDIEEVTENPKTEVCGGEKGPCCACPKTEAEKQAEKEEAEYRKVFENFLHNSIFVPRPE
UniProt P08069, sequence (P08069 741-935, chain 2 of 2): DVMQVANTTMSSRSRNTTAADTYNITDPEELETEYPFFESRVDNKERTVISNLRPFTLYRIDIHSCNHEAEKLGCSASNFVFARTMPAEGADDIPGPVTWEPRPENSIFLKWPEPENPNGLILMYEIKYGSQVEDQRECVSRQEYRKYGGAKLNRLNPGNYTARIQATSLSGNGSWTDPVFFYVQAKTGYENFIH

Kd: 18 nM
Substance: Decorin (from UniProt P07585)
